From publication PMC3017776, “Coordinated transcriptional regulation of two key genes in the lignin branch pathway - CAD and CCR - is mediated through MYB- binding sites” come the findings set out here.

For this data set, the target named is EgMYB2 (R2R3 MYB factor) (UniProt Q70KC5 1-321). Kind of data set: EMSA; EMSA: 25 mM Tris-HCl pH 8, 250 mM NaCl, 10% glycerol, 7 mM beta-mercaptoethanol, 2 ug poly(dIdC), 25 ul, 30 min, room temperature; 0.125 ug EgMYB2; 4.8% PAGE in 0.5x TBE, 2.5% glycerol. As to conditions: protein: recombinant; tags: GST (N-terminal, pGEX-5X-1); label: 32P; blunt.
Sequence of EgMYB2 (R2R3 MYB factor) (Q70KC5 entry or part of it): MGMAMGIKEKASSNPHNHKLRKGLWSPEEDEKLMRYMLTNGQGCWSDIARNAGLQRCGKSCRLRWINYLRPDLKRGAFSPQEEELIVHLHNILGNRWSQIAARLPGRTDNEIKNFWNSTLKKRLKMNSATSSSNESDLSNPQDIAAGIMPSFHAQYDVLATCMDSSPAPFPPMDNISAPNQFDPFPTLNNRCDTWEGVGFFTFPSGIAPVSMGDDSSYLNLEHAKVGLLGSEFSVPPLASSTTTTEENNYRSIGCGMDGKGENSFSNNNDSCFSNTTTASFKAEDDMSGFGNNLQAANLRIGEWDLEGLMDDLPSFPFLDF

B1: EgCAD2 [-203/-129] mutated MYBb (dsDNA)
DNA 1: TGGGAATGGCTAAAAAGCAAGTCTTGACCCTTAACCCACCCCACTGGTTCACCTACCGCACCTCTGAGATCTTATTGCTTGCTGAG
DNA 2: CTCAGCAAGCAATAAGATCTCAGAGGTGCGGTAGGTGAACCAGTGGGGTGGGTTAAGGGTCAAGACTTGCTTTTTAGCCATTCCCA
Consider B1, for which the binding result is listed as “no binding”.

B2: EgCCR [-119/-70] mutated MYB (dsDNA)
DNA 1: CCTTATAGGGGAGCGGGTCATTTCATGCGGTTCTAGAGTCTTGGTAAACATTGTC
DNA 2: GACAATGTTTACCAAGACTCTAGAACCGCATGAAATGACCCGCTCCCCTATAAGG
Regarding B2, the binding result is on record as “no binding”.

B3: EgCAD2 [-203/-129] mutated MYBa (dsDNA)
DNA 1: TGGGAATGGCTAAAAAGCAAGTCTTGACCCTTAACCCACCCCACTGGTTCAGTCGACGCACCTCTGGTTAGGTATTGCTTGCTGAG
DNA 2: CTCAGCAAGCAATACCTAACCAGAGGTGCGTCGACTGAACCAGTGGGGTGGGTTAAGGGTCAAGACTTGCTTTTTAGCCATTCCCA
For B3, the binding result is listed as “no binding”.

B4: EgCAD2 [-203/-129] mutated MYBa + MYBb (dsDNA)
DNA 1: TGGGAATGGCTAAAAAGCAAGTCTTGACCCTTAACCCACCCCACTGGTTCAGTCGACGCACCTCTGAGATCTTATTGCTTGCTGAG
DNA 2: CTCAGCAAGCAATAAGATCTCAGAGGTGCGTCGACTGAACCAGTGGGGTGGGTTAAGGGTCAAGACTTGCTTTTTAGCCATTCCCA
Take B4: the binding result is given as “no binding”.
